In the series the test system is Escherichia coli TOP10. Kind of series: shrunken log2 fold change of peptide-encoding DNA abundance (4.5 h post-induction vs induction); higher = less antimicrobial activity (less host growth inhibition). To be noted: time post-induction: 4.5 h; library: site-saturation at positions 5, 18, 19, 20.
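Further: peptides expressed intracellularly from a pBAD plasmid library in pooled LB shake-flask culture, induced with 0.3% L-arabinose, DNA abundance read by NGS, three biological replicates, DESeq2 with apeglm shrinkage.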

For RRIRWRPPRLPRPRPRPWNYPRP, the “shrunken log2 fold change” value is -0.98. Take RRIRQRPPRLPRPRPRPRNHPRP: the “shrunken log2 fold change” value is -0.137. Then RRIRDRPPRLPRPRPRPEDFPRP, with 0.427; and RRIRGRPPRLPRPRPRPVCPPRP, with 0.385.

Turning to RRIRMRPPRLPRPRPRPDNTPRP, the “shrunken log2 fold change” value amounted to 0.28.

In the case of RRIRDRPPRLPRPRPRPNRHPRP, the “shrunken log2 fold change” value is -0.327. Then RRIRIRPPRLPRPRPRPHHIPRP, with -0.641; and RRIRFRPPRLPRPRPRPRAGPRP, with 0.614. Under RRIRYRPPRLPRPRPRPDTYPRP stands -0.145; under RRIRGRPPRLPRPRPRPTGLPRP, 0.885.

As to RRIRWRPPRLPRPRPRPRIGPRP, the “shrunken log2 fold change” value is 0.138. Then RRIRFRPPRLPRPRPRPCQVPRP, with 0.084; and RRIRCRPPRLPRPRPRPAVWPRP, with 0.617. On to RRIRSRPPRLPRPRPRPVDKPRP, for which the “shrunken log2 fold change” value is -0.175. Then RRIRGRPPRLPRPRPRPYMHPRP, with -0.355. As for RRIRARPPRLPRPRPRPYGHPRP, the “shrunken log2 fold change” value is -0.095. Then RRIRFRPPRLPRPRPRPMTSPRP, with -0.552.

With RRIRTRPPRLPRPRPRPVSRPRP, the “shrunken log2 fold change” value turned out to be 0.464. Under RRIRGRPPRLPRPRPRPCATPRP stands 2.7. Under RRIRQRPPRLPRPRPRPMGLPRP stands -0.0103; under RRIRDRPPRLPRPRPRPRPCPRP, 0.429; under RRIRDRPPRLPRPRPRPKTNPRP, -0.0796. Under RRIRKRPPRLPRPRPRPIMRPRP stands -0.00968; under RRIRVRPPRLPRPRPRPMLFPRP, -0.329. For the sequence RRIRKRPPRLPRPRPRPHDNPRP, the “shrunken log2 fold change” value worked out at 0.029. Take RRIRYRPPRLPRPRPRPRCIPRP: the “shrunken log2 fold change” value was -0.308.

Turning to RRIRMRPPRLPRPRPRPGGMPRP, the “shrunken log2 fold change” value is 0.789.

As to RRIRGRPPRLPRPRPRPFMQPRP, the “shrunken log2 fold change” value came out at 0.165.

On to RRIRPRPPRLPRPRPRPSTPPRP, for which the “shrunken log2 fold change” value was -0.0766.

As for RRIRLRPPRLPRPRPRPGFVPRP, the “shrunken log2 fold change” value was 0.487. Under RRIRERPPRLPRPRPRPTGYPRP stands -0.0056; under RRIRGRPPRLPRPRPRPETSPRP, 1.68; under RRIRARPPRLPRPRPRPFVPPRP, -0.0963. Under RRIRYRPPRLPRPRPRPDVVPRP stands 0.0135; under RRIRLRPPRLPRPRPRPGPVPRP, 0.753. Under RRIRFRPPRLPRPRPRPQKTPRP stands 0.00435; under RRIRLRPPRLPRPRPRPTSIPRP, -0.178.

Take RRIRSRPPRLPRPRPRPPQKPRP: the “shrunken log2 fold change” value was found to be 0.463. Then RRIRLRPPRLPRPRPRPGNWPRP, with 0.0269; and RRIRIRPPRLPRPRPRPIRVPRP, with -0.0611; and RRIRIRPPRLPRPRPRPYHSPRP, with -0.00112.

Regarding RRIRTRPPRLPRPRPRPPCEPRP, the “shrunken log2 fold change” value stood at 0.0977. Under RRIRMRPPRLPRPRPRPRYIPRP stands -0.31; under RRIRKRPPRLPRPRPRPVASPRP, 0.533; under RRIRMRPPRLPRPRPRPIPQPRP, 0.256. Under RRIRLRPPRLPRPRPRPMRDPRP stands 0.336.

Regarding RRIRWRPPRLPRPRPRPDVGPRP, the “shrunken log2 fold change” value is 0.181. As to RRIRMRPPRLPRPRPRPHMSPRP, the “shrunken log2 fold change” value is -0.123.

As to RRIRVRPPRLPRPRPRPSPEPRP, the “shrunken log2 fold change” value was -0.142. In the case of RRIRDRPPRLPRPRPRPSLCPRP, the “shrunken log2 fold change” value was -0.0148.

These data come from the supplement of paper PMC9112550, “Optimization of the antimicrobial peptide Bac7 by deep mutational scanning” (BMC Biology, 2022).
